# B1: 6YSE (parent)
# chain: HERALMVNRLQKLTRMLRVHPDPKWKQEQQELIKRLK
# Variants of: B1
# Assay: folding stability dG (cDNA display proteolysis); higher = more stable
# Conditions: PBS, room temperature
row,Variant,folding stability dG
1,HERALMVNRLQKLTRMLRVHPDAKWKQEQQELIKRLK [P23A],1.03 kcal/mol
2,HERALMVNRLQKLTRMLRVHPDTKWKQEQQELIKRLK [P23T],0.669 kcal/mol
3,HERALMVNRLQKLTRMLRVHPDVKWKQEQQELIKRLK [P23V],0.701 kcal/mol
4,HERALMVNRLQKLTRMLRVHPDWKWKQEQQELIKRLK [P23W],0.75 kcal/mol
5,HERALMVNRLQKLTRMLRVHPDSKWKQEQQELIKRLK [P23S],0.806 kcal/mol
6,HERALMVNRLQKLTRMLRVHPDDKWKQEQQELIKRLK [P23D],0.676 kcal/mol
7,HERALMVNRLQKLTRMLRVHPDKKWKQEQQELIKRLK [P23K],0.967 kcal/mol
8,HERALMVNRLQKLTRMLRVHPDYKWKQEQQELIKRLK [P23Y],0.554 kcal/mol
9,HERALMVNRLQKLTRMLRVHPDFKWKQEQQELIKRLK [P23F],0.718 kcal/mol
10,HERALMVNRLQKLTRMLRVHPDHKWKQEQQELIKRLK [P23H],0.269 kcal/mol
11,HERALMVNRLQKLTRMLRVHPDGKWKQEQQELIKRLK [P23G],0.641 kcal/mol
12,HERALMVNRLQKLTRMLRVHPDRKWKQEQQELIKRLK [P23R],0.598 kcal/mol
13,HERALMVNRLQKLTRMLRVHPDLKWKQEQQELIKRLK [P23L],0.804 kcal/mol
14,HERALMVNRLQKLTRMLRVHPDEKWKQEQQELIKRLK [P23E],0.721 kcal/mol
15,HERALMVNRLQKLTRMLRVHPDMKWKQEQQELIKRLK [P23M],0.09 kcal/mol
16,HERALMVNRLQKLTRMLRVHPDIKWKQEQQELIKRLK [P23I],0.608 kcal/mol
17,HERALMVNRLQKLTRMLRVHPDNKWKQEQQELIKRLK [P23N],0.238 kcal/mol
18,HERALMVNRLQKLTRMLRVHPDQKWKQEQQELIKRLK [P23Q],0.666 kcal/mol
19,HERALMVNRLQKLTRMLRVHPDPKNKQEQQELIKRLK [W25N],0.386 kcal/mol
20,HERALMVNRLQKLTRMLRVHPDPKFKQEQQELIKRLK [W25F],1.25 kcal/mol
21,HERALMVNRLQKLTRMLRVHPDPKYKQEQQELIKRLK [W25Y],1.32 kcal/mol
22,HERALMVNRLQKLTRMLRVHPDPKKKQEQQELIKRLK [W25K],0.636 kcal/mol
23,HERALMVNRLQKLTRMLRVHPDPKIKQEQQELIKRLK [W25I],1.62 kcal/mol

row,Variant,folding stability dG
1,HERALMVNRLQKLTRMLRVHPDPKGKQEQQELIKRLK [W25G],0.387 kcal/mol
2,HERALMVNRLQKLTRMLRVHPDPKQKQEQQELIKRLK [W25Q],0.755 kcal/mol
3,HERALMVNRLQKLTRMLRVHPDPKAKQEQQELIKRLK [W25A],0.973 kcal/mol
4,HERALMVNRLQKLTRMLRVHPDPKMKQEQQELIKRLK [W25M],1.71 kcal/mol
5,HERALMVNRLQKLTRMLRVHPDPKHKQEQQELIKRLK [W25H],0.686 kcal/mol
6,HERALMVNRLQKLTRMLRVHPDPKLKQEQQELIKRLK [W25L],1.97 kcal/mol
7,HERALMVNRLQKLTRMLRVHPDPKVKQEQQELIKRLK [W25V],1.22 kcal/mol
8,HERALMVNRLQKLTRMLRVHPDPKSKQEQQELIKRLK [W25S],0.206 kcal/mol
9,HERALMVNRLQKLTRMLRVHPDPKTKQEQQELIKRLK [W25T],0.731 kcal/mol
10,HERALMVNRLQKLTRMLRVHPDPKRKQEQQELIKRLK [W25R],0.719 kcal/mol
11,HERALMVNRLQKLTRMLRVHPDPKDKQEQQELIKRLK [W25D],0.337 kcal/mol
12,HERALMVNRLQKLTRMLRVHPDPVWKQEQQELIKRLK [K24V],1.31 kcal/mol
13,HERALMVNRLQKLTRMLRVHPDPWWKQEQQELIKRLK [K24W],0.63 kcal/mol
14,HERALMVNRLQKLTRMLRVHPDPLWKQEQQELIKRLK [K24L],1.11 kcal/mol
15,HERALMVNRLQKLTRMLRVHPDPQWKQEQQELIKRLK [K24Q],1.22 kcal/mol
16,HERALMVNRLQKLTRMLRVHPDPAWKQEQQELIKRLK [K24A],1.24 kcal/mol
17,HERALMVNRLQKLTRMLRVHPDPEWKQEQQELIKRLK [K24E],1.01 kcal/mol
18,HERALMVNRLQKLTRMLRVHPDPRWKQEQQELIKRLK [K24R],1.34 kcal/mol
19,HERALMVNRLQKLTRMLRVHPDPGWKQEQQELIKRLK [K24G],0.85 kcal/mol
20,HERALMVNRLQKLTRMLRVHPDPHWKQEQQELIKRLK [K24H],0.889 kcal/mol
21,HERALMVNRLQKLTRMLRVHPDPSWKQEQQELIKRLK [K24S],0.97 kcal/mol
22,HERALMVNRLQKLTRMLRVHPDPNWKQEQQELIKRLK [K24N],0.982 kcal/mol
23,HERALMVNRLQKLTRMLRVHPDPMWKQEQQELIKRLK [K24M],1.09 kcal/mol

row,Variant,folding stability dG
1,HERALMVNRLQKLTRMLRVHPDPYWKQEQQELIKRLK [K24Y],1.13 kcal/mol
2,HERALMVNRLQKLTRMLRVHPDPTWKQEQQELIKRLK [K24T],1.3 kcal/mol
3,HERALMVNRLQKLTRMLRVHPDPDWKQEQQELIKRLK [K24D],0.986 kcal/mol
4,HERALMVNRLQKLTRMLRVHPDPIWKQEQQELIKRLK [K24I],1.32 kcal/mol
5,HERALMVNRLQKLTRMLRVHPDPFWKQEQQELIKRLK [K24F],0.828 kcal/mol
6,HERALMVNRLQKLTRMLRVHPVPKWKQEQQELIKRLK [D22V],0.67 kcal/mol
7,HERALMVNRLQKLTRMLRVHPLPKWKQEQQELIKRLK [D22L],1.22 kcal/mol
8,HERALMVNRLQKLTRMLRVHPKPKWKQEQQELIKRLK [D22K],1.23 kcal/mol
9,HERALMVNRLQKLTRMLRVHPMPKWKQEQQELIKRLK [D22M],0.675 kcal/mol
10,HERALMVNRLQKLTRMLRVHPHPKWKQEQQELIKRLK [D22H],1.3 kcal/mol
11,HERALMVNRLQKLTRMLRVHPGPKWKQEQQELIKRLK [D22G],0.117 kcal/mol
12,HERALMVNRLQKLTRMLRVHPIPKWKQEQQELIKRLK [D22I],0.677 kcal/mol
13,HERALMVNRLQKLTRMLRVHPRPKWKQEQQELIKRLK [D22R],1.06 kcal/mol
14,HERALMVNRLQKLTRMLRVHPWPKWKQEQQELIKRLK [D22W],0.947 kcal/mol
15,HERALMVNRLQKLTRMLRVHPNPKWKQEQQELIKRLK [D22N],1.67 kcal/mol
16,HERALMVNRLQKLTRMLRVHPTPKWKQEQQELIKRLK [D22T],1.13 kcal/mol
17,HERALMVNRLQKLTRMLRVHPYPKWKQEQQELIKRLK [D22Y],1.14 kcal/mol
18,HERALMVNRLQKLTRMLRVHPSPKWKQEQQELIKRLK [D22S],1.09 kcal/mol
19,HERALMVNRLQKLTRMLRVHPDPKWAQEQQELIKRLK [K26A],0.85 kcal/mol
20,HERALMVNRLQKLTRMLRVHPDPKWCQEQQELIKRLK [K26C],0.732 kcal/mol
21,HERALMVNRLQKLTRMLRVHPDPKWDQEQQELIKRLK [K26D],-0.129 kcal/mol
